In the Human Domainome abundance scans (Beltran et al. 2025):
± gives the uncertainty stated by the source.

assay: abundance fitness (aPCA) (normalised: wild type 0, dead -1); higher = more abundant; growth selection in yeast, the domain comes from the species named; conditions: Homo sapiens

Q: With Transcription factor SOX-4 I77L, Q06945 as the substance, how does the abundance fitness read?
A: -0.126 ± 0.055

Q: For Transcription factor SOX-4 I72D, Q06945, which abundance fitness is on record?
A: -0.595 ± 0.46

Q: Which abundance fitness does the source give for “Transcription factor SOX-4 A121T, Q06945” here?
A: -0.009 ± 0.06

Q: Which abundance fitness does the source give for Transcription factor SOX-4 K95Q, Q06945 here?
A: 0.115 ± 0.14

Q: Which abundance fitness does the source give for “Transcription factor SOX-4 I106R, Q06945” here?
A: -0.209 ± 0.042

Q: For Transcription factor SOX-4 E88V, Q06945, which abundance fitness is on record?
A: -0.649 ± 0.066

same assay, conditions: Saccharomyces cerevisiae (strain ATCC 204508 / S288c)

Q: Which abundance fitness does the source give for “E3 ubiquitin-protein ligase RSP5 G325F, P39940” here?
A: -0.132 ± 0.065

Q: For “E3 ubiquitin-protein ligase RSP5 D351A, P39940”, which abundance fitness is on record?
A: -0.731 ± 0.053

Q: With “E3 ubiquitin-protein ligase RSP5 P334V, P39940” as the substance, how does the abundance fitness read?
A: -0.966 ± 0.05

Q: Which abundance fitness does the source give for “E3 ubiquitin-protein ligase RSP5 Q366W, P39940” here?
A: -0.001 ± 0.061

Q: With “E3 ubiquitin-protein ligase RSP5 T327H, P39940” as the substance, how does the abundance fitness read?
A: 0.019 ± 0.16

Q: Which abundance fitness does the source give for “E3 ubiquitin-protein ligase RSP5 V350Y, P39940” here?
A: -0.136 ± 0.14

Q: With “E3 ubiquitin-protein ligase RSP5 T356C, P39940” as the substance, how does the abundance fitness read?
A: 0.032 ± 0.064

Q: For “E3 ubiquitin-protein ligase RSP5 P362K, P39940”, which abundance fitness is on record?
A: -1.01 ± 0.1

Q: Which abundance fitness does the source give for “E3 ubiquitin-protein ligase RSP5 P343Q, P39940” here?
A: -0.041 ± 0.059

Q: Which abundance fitness does the source give for “E3 ubiquitin-protein ligase RSP5 R340M, P39940” here?
A: 0.052 ± 0.055

Q: With “E3 ubiquitin-protein ligase RSP5 T357A, P39940” as the substance, how does the abundance fitness read?
A: -0.304 ± 0.048

Q: Which abundance fitness does the source give for “E3 ubiquitin-protein ligase RSP5 T357C, P39940” here?
A: -0.142 ± 0.065

Q: With “E3 ubiquitin-protein ligase RSP5 G329Y, P39940” as the substance, how does the abundance fitness read?
A: -0.337 ± 0.39

Q: Which abundance fitness does the source give for “E3 ubiquitin-protein ligase RSP5 T356V, P39940” here?
A: -0.124 ± 0.052

Q: With “E3 ubiquitin-protein ligase RSP5 R363D, P39940” as the substance, how does the abundance fitness read?
A: -0.725 ± 0.067

Q: Which abundance fitness does the source give for “E3 ubiquitin-protein ligase RSP5 S328T, P39940” here?
A: -0.018 ± 0.12

Q: For “E3 ubiquitin-protein ligase RSP5 S328K, P39940”, which abundance fitness is on record?
A: 0.083 ± 0.055

Q: For “E3 ubiquitin-protein ligase RSP5 Q339G, P39940”, which abundance fitness is on record?
A: -0.256 ± 0.044

Q: For “E3 ubiquitin-protein ligase RSP5 D351G, P39940”, which abundance fitness is on record?
A: -0.89 ± 0.046

Q: For “E3 ubiquitin-protein ligase RSP5 Q339D, P39940”, which abundance fitness is on record?
A: -0.602 ± 0.09

Q: For “E3 ubiquitin-protein ligase RSP5 G324D, P39940”, which abundance fitness is on record?
A: 0.06 ± 0.065

Q: For “E3 ubiquitin-protein ligase RSP5 Q366H, P39940”, which abundance fitness is on record?
A: -0.304 ± 0.19

Q: With “E3 ubiquitin-protein ligase RSP5 G336M, P39940” as the substance, how does the abundance fitness read?
A: -0.531 ± 0.1

Q: Which abundance fitness does the source give for “E3 ubiquitin-protein ligase RSP5 Q366T, P39940” here?
A: 0.054 ± 0.078

Q: With “E3 ubiquitin-protein ligase RSP5 F341C, P39940” as the substance, how does the abundance fitness read?
A: 0.051 ± 0.069

Q: With “E3 ubiquitin-protein ligase RSP5 R363T, P39940” as the substance, how does the abundance fitness read?
A: -0.256 ± 0.056

Q: For “E3 ubiquitin-protein ligase RSP5 E344K, P39940”, which abundance fitness is on record?
A: -0.222 ± 0.063

Q: With “E3 ubiquitin-protein ligase RSP5 R346Y, P39940” as the substance, how does the abundance fitness read?
A: 0.068 ± 0.079

Q: For “E3 ubiquitin-protein ligase RSP5 R355E, P39940”, which abundance fitness is on record?
A: -0.159 ± 0.053

Q: With “E3 ubiquitin-protein ligase RSP5 T354R, P39940” as the substance, how does the abundance fitness read?
A: -0.219 ± 0.044

Q: With “E3 ubiquitin-protein ligase RSP5 G336P, P39940” as the substance, how does the abundance fitness read?
A: -0.755 ± 0.057

Q: Which abundance fitness does the source give for “E3 ubiquitin-protein ligase RSP5 P334Y, P39940” here?
A: -0.627 ± 0.14

Q: With “E3 ubiquitin-protein ligase RSP5 R340N, P39940” as the substance, how does the abundance fitness read?
A: -0.089 ± 0.08

Q: Which abundance fitness does the source give for “E3 ubiquitin-protein ligase RSP5 P343K, P39940” here?
A: 0.102 ± 0.07

Q: With “E3 ubiquitin-protein ligase RSP5 T356E, P39940” as the substance, how does the abundance fitness read?
A: -0.3 ± 0.054

Q: For “E3 ubiquitin-protein ligase RSP5 G329R, P39940”, which abundance fitness is on record?
A: -0.021 ± 0.043

Q: Which abundance fitness does the source give for “E3 ubiquitin-protein ligase RSP5 S335E, P39940” here?
A: -0.031 ± 0.053

Q: For “E3 ubiquitin-protein ligase RSP5 W359C, P39940”, which abundance fitness is on record?
A: -0.336 ± 0.085

Q: For “E3 ubiquitin-protein ligase RSP5 T356N, P39940”, which abundance fitness is on record?
A: -0.285 ± 0.18

Q: For “E3 ubiquitin-protein ligase RSP5 T354C, P39940”, which abundance fitness is on record?
A: -0.196 ± 0.088

Q: Which abundance fitness does the source give for “E3 ubiquitin-protein ligase RSP5 T356G, P39940” here?
A: -0.465 ± 0.044

Q: With “E3 ubiquitin-protein ligase RSP5 H352W, P39940” as the substance, how does the abundance fitness read?
A: -0.223 ± 0.049

Q: For “E3 ubiquitin-protein ligase RSP5 S328R, P39940”, which abundance fitness is on record?
A: -0.095 ± 0.044

Q: Which abundance fitness does the source give for “E3 ubiquitin-protein ligase RSP5 S335M, P39940” here?
A: -0.086 ± 0.063

Q: For “E3 ubiquitin-protein ligase RSP5 G325W, P39940”, which abundance fitness is on record?
A: -0.141 ± 0.099

Q: For “E3 ubiquitin-protein ligase RSP5 D351S, P39940”, which abundance fitness is on record?
A: -0.584 ± 0.057

Q: For “E3 ubiquitin-protein ligase RSP5 R355P, P39940”, which abundance fitness is on record?
A: -0.64 ± 0.064

Q: For “E3 ubiquitin-protein ligase RSP5 P334M, P39940”, which abundance fitness is on record?
A: -0.702 ± 0.059

Q: With “E3 ubiquitin-protein ligase RSP5 T326V, P39940” as the substance, how does the abundance fitness read?
A: -0.008 ± 0.051

Q: With “E3 ubiquitin-protein ligase RSP5 Q365G, P39940” as the substance, how does the abundance fitness read?
A: 0.052 ± 0.046

Q: Which abundance fitness does the source give for “E3 ubiquitin-protein ligase RSP5 E344F, P39940” here?
A: -0.309 ± 0.072

Q: For “E3 ubiquitin-protein ligase RSP5 L330F, P39940”, which abundance fitness is on record?
A: -0.014 ± 0.071

Q: With “E3 ubiquitin-protein ligase RSP5 T356Q, P39940” as the substance, how does the abundance fitness read?
A: -0.121 ± 0.05

Q: Which abundance fitness does the source give for “E3 ubiquitin-protein ligase RSP5 V350A, P39940” here?
A: -0.275 ± 0.043

Q: Which abundance fitness does the source give for “E3 ubiquitin-protein ligase RSP5 Y348W, P39940” here?
A: -0.147 ± 0.049

Q: With “E3 ubiquitin-protein ligase RSP5 L330P, P39940” as the substance, how does the abundance fitness read?
A: -0.058 ± 0.069

Q: For “E3 ubiquitin-protein ligase RSP5 F341E, P39940”, which abundance fitness is on record?
A: 0.068 ± 0.064

Q: With “E3 ubiquitin-protein ligase RSP5 R363N, P39940” as the substance, how does the abundance fitness read?
A: -0.357 ± 0.069

Q: With “E3 ubiquitin-protein ligase RSP5 T327M, P39940” as the substance, how does the abundance fitness read?
A: 0.103 ± 0.077

Q: With “E3 ubiquitin-protein ligase RSP5 F341T, P39940” as the substance, how does the abundance fitness read?
A: 0.003 ± 0.067

Q: Which abundance fitness does the source give for “E3 ubiquitin-protein ligase RSP5 P343L, P39940” here?
A: -0.021 ± 0.048

Q: With “E3 ubiquitin-protein ligase RSP5 G331H, P39940” as the substance, how does the abundance fitness read?
A: -0.009 ± 0.15

Q: Which abundance fitness does the source give for “E3 ubiquitin-protein ligase RSP5 E338Y, P39940” here?
A: -0.632 ± 0.075

Q: For “E3 ubiquitin-protein ligase RSP5 G324S, P39940”, which abundance fitness is on record?
A: 0.097 ± 0.092

Q: With “E3 ubiquitin-protein ligase RSP5 G345P, P39940” as the substance, how does the abundance fitness read?
A: -0.717 ± 0.084

Q: For “E3 ubiquitin-protein ligase RSP5 V360N, P39940”, which abundance fitness is on record?
A: 0.014 ± 0.093

Q: Which abundance fitness does the source give for “E3 ubiquitin-protein ligase RSP5 W359D, P39940” here?
A: -0.225 ± 0.059

Q: For “E3 ubiquitin-protein ligase RSP5 P362S, P39940”, which abundance fitness is on record?
A: -1.09 ± 0.065

Q: With “E3 ubiquitin-protein ligase RSP5 E344L, P39940” as the substance, how does the abundance fitness read?
A: -0.31 ± 0.047

Q: For “E3 ubiquitin-protein ligase RSP5 G329W, P39940”, which abundance fitness is on record?
A: -0.139 ± 0.058

Q: With “E3 ubiquitin-protein ligase RSP5 R363M, P39940” as the substance, how does the abundance fitness read?
A: -0.233 ± 0.061

Q: With “E3 ubiquitin-protein ligase RSP5 T356A, P39940” as the substance, how does the abundance fitness read?
A: -0.237 ± 0.048

Q: With “E3 ubiquitin-protein ligase RSP5 N353Q, P39940” as the substance, how does the abundance fitness read?
A: -0.212 ± 0.052

Q: Which abundance fitness does the source give for “E3 ubiquitin-protein ligase RSP5 T342R, P39940” here?
A: -0.738 ± 0.044

Q: Which abundance fitness does the source give for “E3 ubiquitin-protein ligase RSP5 T342P, P39940” here?
A: -0.556 ± 0.074

Q: With “E3 ubiquitin-protein ligase RSP5 Y348H, P39940” as the substance, how does the abundance fitness read?
A: -0.699 ± 0.16

Q: With “E3 ubiquitin-protein ligase RSP5 P334C, P39940” as the substance, how does the abundance fitness read?
A: -0.746 ± 0.072

Q: Which abundance fitness does the source give for “E3 ubiquitin-protein ligase RSP5 P362I, P39940” here?
A: -0.791 ± 0.12

Q: For “E3 ubiquitin-protein ligase RSP5 G329V, P39940”, which abundance fitness is on record?
A: -0.006 ± 0.042

Q: Which abundance fitness does the source give for “E3 ubiquitin-protein ligase RSP5 Q365F, P39940” here?
A: -0.034 ± 0.15

Q: With “E3 ubiquitin-protein ligase RSP5 L333C, P39940” as the substance, how does the abundance fitness read?
A: -0.428 ± 0.06

Q: With “E3 ubiquitin-protein ligase RSP5 E344M, P39940” as the substance, how does the abundance fitness read?
A: -0.103 ± 0.06

Q: With “E3 ubiquitin-protein ligase RSP5 Q365W, P39940” as the substance, how does the abundance fitness read?
A: 0.051 ± 0.08

Q: For “E3 ubiquitin-protein ligase RSP5 G336L, P39940”, which abundance fitness is on record?
A: -0.575 ± 0.062

Q: Which abundance fitness does the source give for “E3 ubiquitin-protein ligase RSP5 R346C, P39940” here?
A: 0.095 ± 0.069

Q: For “E3 ubiquitin-protein ligase RSP5 F349W, P39940”, which abundance fitness is on record?
A: -0.008 ± 0.052

Q: For “E3 ubiquitin-protein ligase RSP5 R355G, P39940”, which abundance fitness is on record?
A: -0.186 ± 0.041

Q: For “E3 ubiquitin-protein ligase RSP5 H352N, P39940”, which abundance fitness is on record?
A: 0.049 ± 0.085

Q: With “E3 ubiquitin-protein ligase RSP5 T357Q, P39940” as the substance, how does the abundance fitness read?
A: -0.441 ± 0.07

Q: For “E3 ubiquitin-protein ligase RSP5 R364M, P39940”, which abundance fitness is on record?
A: 0.051 ± 0.059

Q: For “E3 ubiquitin-protein ligase RSP5 A347Q, P39940”, which abundance fitness is on record?
A: -0.063 ± 0.055

Q: With “E3 ubiquitin-protein ligase RSP5 A347K, P39940” as the substance, how does the abundance fitness read?
A: 0.008 ± 0.053

Q: For “E3 ubiquitin-protein ligase RSP5 A347W, P39940”, which abundance fitness is on record?
A: -0.316 ± 0.047

Q: Which abundance fitness does the source give for “E3 ubiquitin-protein ligase RSP5 E332T, P39940” here?
A: -0.14 ± 0.069

Q: Which abundance fitness does the source give for “E3 ubiquitin-protein ligase RSP5 F341R, P39940” here?
A: -0.053 ± 0.045

Q: For “E3 ubiquitin-protein ligase RSP5 H352P, P39940”, which abundance fitness is on record?
A: -0.636 ± 0.05

Q: Which abundance fitness does the source give for “E3 ubiquitin-protein ligase RSP5 L330I, P39940” here?
A: 0.007 ± 0.062
